Patent publication US20160145328A1

Molecular target: protein A (UniProt P38507)
Test: Heat/Cool phage ELISA: phage-displayed VH, 80 C 10 min then 4 C 10 min, captured on coated protein A; signal as % of untreated sample

Retained binding to protein A (%): 50%
Substance: DP47 VH SY_31/32-DE
